Like-named read-outs stand apart in the source and are kept apart here.
How the values were obtained:
[1] = biological target: T1, human IL-7Rα (IL-7R) on human PBMCs / monocytes (human, UniProt P16871 21-459); assay: cell-based or functional assay
T1 chain: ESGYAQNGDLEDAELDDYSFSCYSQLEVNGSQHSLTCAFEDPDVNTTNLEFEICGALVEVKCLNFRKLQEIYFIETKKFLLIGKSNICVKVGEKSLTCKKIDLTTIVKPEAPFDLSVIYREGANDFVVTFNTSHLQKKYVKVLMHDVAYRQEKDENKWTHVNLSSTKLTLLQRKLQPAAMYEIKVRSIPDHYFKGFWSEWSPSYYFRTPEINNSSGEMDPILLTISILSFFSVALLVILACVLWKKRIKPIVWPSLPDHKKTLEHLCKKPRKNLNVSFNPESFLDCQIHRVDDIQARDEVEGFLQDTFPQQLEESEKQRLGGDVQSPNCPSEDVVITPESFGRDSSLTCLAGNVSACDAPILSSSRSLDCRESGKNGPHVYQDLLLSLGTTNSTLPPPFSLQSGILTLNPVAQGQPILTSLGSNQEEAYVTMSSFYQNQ

[2] = biological target: T1, human IL-7Rα (IL-7R) on human PBMCs / …; assay: cell-based or functional assay

B1: V7R-2E9 (VHH, not shown: small tags and cut ends)
VHH: EVQLVESGGGLVQAGGSLRLSCESSISTFSSDAMGWFRQAPGKEREFLAAIGWSGAVTHYSDSVQGRFTISRDNAKNTVYLQMNSLKSEDTGRYYCAEDYDTDVWQYWGQGTQVTVSS
[1]
  IL-7 induced pSTAT5 in hPBMCs EC50: 2.86 nM
[2]
  IL-7 induced pSTAT5 in hPBMCs EC50: 2.86 nM

Source: US20230056445A1 (published 2023)
